Results: article doi:10.1101/2020.04.11.018549v1 (biorxiv, 2020)

Assays:
RjoADP-GlcPPase = target: T1, RjoADP-GlcPPase (Rhodococcus jostii, UniProt Q0S3Y4); experiment: Pi release; type: biochemical; conditions: read-out: S0.5; no effector; ATP, 10 mM MgCl2, pH 8.0, 37°C
T1 sequence (Q0S3Y4 1-404): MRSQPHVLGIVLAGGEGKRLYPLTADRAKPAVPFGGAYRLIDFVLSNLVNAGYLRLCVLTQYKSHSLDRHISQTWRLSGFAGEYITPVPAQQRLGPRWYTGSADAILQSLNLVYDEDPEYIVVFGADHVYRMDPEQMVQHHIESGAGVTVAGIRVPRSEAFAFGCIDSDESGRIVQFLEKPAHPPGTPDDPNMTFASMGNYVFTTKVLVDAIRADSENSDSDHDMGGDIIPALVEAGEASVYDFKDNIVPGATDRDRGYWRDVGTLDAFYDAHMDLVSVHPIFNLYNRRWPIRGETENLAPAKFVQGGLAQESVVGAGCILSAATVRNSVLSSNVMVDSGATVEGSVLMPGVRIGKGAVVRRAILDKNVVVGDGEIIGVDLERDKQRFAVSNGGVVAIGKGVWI

purified protein [1] = substrate: Nc1ncnc2c1ncn2[C@@H]1O[C@H](COP(=O)(O)OP(=O)(O)OP(=O)(O)O)[C@@H](O)[C@H]1O; experiment: purified protein; conditions: no effector, Glc-1P, 10 mM MgCl2, pH 8.0, 37°C
purified protein [2] = substrate: O=P(O)(O)O[C@H]1O[C@H](CO)[C@@H](O)[C@H](O)[C@H]1O; experiment: purified protein; conditions: no effector, ATP, 10 mM MgCl2, pH 8.0, 37°C

O=P(O)(O)O[C@H]1O[C@H](CO)[C@@H](O)[C@H](O)[C@H]1O [Glc-1P]
Km (RjoADP-GlcPPase): 1800 µM

B1: RfaADP-GlcPPase (Rhodococcoides fascians) (protein)
chain: MRTQPHVLGIVLAGGEGKRLYPMTADRAKPAVPFGGAYRLIDFVLSNLVNAGYLRLCVLTQYKSHSLDRHISQTWRLSGFAGEYITPVPAQQRLGPRWYTGSADAIFQSLNLVYDEDPEYIVVFGADHVYRMDPEQMVQQHIDSGAGVTVAGIRVPRSEAFAFGCIDSDENGKITQFLEKPAQPPGTPDDPDVTYASMGNYVFTTKVLVDAIKADSENSDSDHDMGGDIIPALVEAGVASVYDFNDNVVPGATERDRGYWRDVGTIDAFYDAHMDLVSVHPIFNLYNRRWPIRGSAENLPPAKFVQGGLAQESVVGAGCILSAATVRNSVLSSNVMIDSGATVEGSVLMPGVRIGKGAVVRHAILDKNVVVGDGEIVGVDLERDRERFNVSAGGVVSVGKGVWI
K0.5 (purified protein [1]): 0.58 mM | K0.5 (purified protein [2]): 1.17 ± 0.08 mM | kcat (purified protein [2]): 8.8 s⁻¹
